Substitutions are numbered along the chain they refer to. Names and notes keep the numbering of the source.
T1: human TIGIT on HEK-Blue reporter cells (human, UniProt Q495A1 22-244)
T1 sequence (looked up): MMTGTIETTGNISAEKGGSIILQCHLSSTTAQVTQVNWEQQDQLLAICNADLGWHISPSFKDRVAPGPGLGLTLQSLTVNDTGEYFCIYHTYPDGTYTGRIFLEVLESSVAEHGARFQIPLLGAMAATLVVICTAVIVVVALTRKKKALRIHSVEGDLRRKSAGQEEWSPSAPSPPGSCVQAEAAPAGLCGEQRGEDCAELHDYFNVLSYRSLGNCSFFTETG

T2: human IL-2 receptor (IL-2Rα, IL-2Rβ, IL-2Rγ) (human, UniProt P01589 22-272; P14784 27-551; P31785 23-369)
T2 sequence (looked up) 1: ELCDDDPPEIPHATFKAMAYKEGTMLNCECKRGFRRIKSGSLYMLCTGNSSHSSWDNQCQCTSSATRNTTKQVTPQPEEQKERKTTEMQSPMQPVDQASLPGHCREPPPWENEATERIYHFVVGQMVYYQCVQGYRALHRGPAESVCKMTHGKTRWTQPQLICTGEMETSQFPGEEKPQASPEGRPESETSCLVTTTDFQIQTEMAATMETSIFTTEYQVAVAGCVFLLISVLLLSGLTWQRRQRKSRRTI
T2 sequence (looked up) 2: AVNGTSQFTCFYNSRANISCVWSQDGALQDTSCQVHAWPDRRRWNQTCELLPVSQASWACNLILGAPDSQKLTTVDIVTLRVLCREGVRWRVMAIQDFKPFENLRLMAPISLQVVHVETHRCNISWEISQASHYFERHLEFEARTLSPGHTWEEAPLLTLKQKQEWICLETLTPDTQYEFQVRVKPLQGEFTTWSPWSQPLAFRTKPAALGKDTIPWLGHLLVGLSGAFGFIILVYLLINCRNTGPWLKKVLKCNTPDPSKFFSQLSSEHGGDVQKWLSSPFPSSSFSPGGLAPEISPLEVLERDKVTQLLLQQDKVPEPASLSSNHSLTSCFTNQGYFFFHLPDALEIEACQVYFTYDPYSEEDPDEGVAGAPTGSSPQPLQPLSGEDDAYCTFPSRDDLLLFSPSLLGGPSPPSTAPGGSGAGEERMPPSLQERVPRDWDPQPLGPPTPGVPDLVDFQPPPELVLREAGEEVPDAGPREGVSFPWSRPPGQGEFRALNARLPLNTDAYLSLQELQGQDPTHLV
T2 sequence (looked up) 3: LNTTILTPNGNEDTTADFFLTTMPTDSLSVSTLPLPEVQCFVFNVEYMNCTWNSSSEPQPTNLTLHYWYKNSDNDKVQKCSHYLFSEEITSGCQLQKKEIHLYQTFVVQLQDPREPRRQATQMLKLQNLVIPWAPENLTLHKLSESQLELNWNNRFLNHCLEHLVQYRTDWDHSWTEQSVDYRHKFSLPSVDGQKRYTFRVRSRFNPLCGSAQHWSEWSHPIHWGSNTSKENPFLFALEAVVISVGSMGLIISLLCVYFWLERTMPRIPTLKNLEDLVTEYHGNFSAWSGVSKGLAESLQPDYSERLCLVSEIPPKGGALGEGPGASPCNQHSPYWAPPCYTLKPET

B1: IL-12(E59A/F60A)/CD155-Fc (IL-12 at hinge) (Fc fusion)
chain 1: WPPPGTGDVVVQAPTQVPGFLGDSVTLPCYLQVPNMEVTHVSQLTWARHGESGSMAVFHQTQGPSYSESKRLEFVAARLGAELRNASLRMFGLRVEDEGNYTCLFVTFPQGSRSVDIWLRVLAKPQNTAEVQKVQLTGEPVPMARCVSTGGRPPAQITWHSDLGGMPNTSQVPGFLSGTVTVTSLWILVPSSQVDGKNVTCKVEHESFEKPQLLTVNLTVYYPPEVSISGYDNNWYLGQNEATLTCDARSNPEPTGYNWSTTMGPLPPFAVAQGAQLLIRPVDKPINTTLICNVTNALGARQAELTVQVKEGPPSEHSGISRNGGGGSGGGIWELKKDVYVVELDWYPDAPGEMVVLTCDTPEEDGITWTLDQSSEVLGSGKTLTIQVKAAGDAGQYTCHKGGEVLSHSLLLLHKKEDGIWSTDILKDQKEPKNKTFLRCEAKNYSGRFTCWWLTTISTDLTFSVKSSRGSSDPQGVTCGAATLSAERVRGDNKEYEYSVECQEDSACPAAEESLPIEVMVDAVHKLKYENYTSSFFIRDIIKPDPPKNLQLKPLKNSRQVEVSWEYPDTWSTPHSYFSLTFCVQVQGKSKREKKDRVFTDKTSATVICRKNASISVRAQDRYYSSSWSEWASVPCSGGGGSGGGSGGGGSRNLPVATPDPGMFPCLHHSQNLLRAVSNMLQKARQTLEFYPCTSEEIDHEDITKDKTSTVEACLPLELTKNESCLNSRETSFITNGSCLASRKTSFMMALCLSSIYEDLKMYQVEFKTMNAKLLMDPKRQIFLDQNMLAVIDELMQALNFNSETVPQKSSLEEPDFYKTKIKLCILLHAFRIRAVTIDRVMSYLNASGGGGSGGGDKTHTCPPCPAPEDEGGPSVFLFPPKPKDTLMISRTPEVTCVVVDVSHEDPEVKFNWYVDGVEVHNAKTKPREEQYNSTYRVVSVLTVLHQDWLNGKEYKCKVSNKALPAPIEKTISKAKGQPREPQVYVYPPSREEMTKNQVSLTCLVKGFYPSDIAVEWESNGQPENNYKTTPPVLDEDGSFALVSKLTVDKSRWQQGNVFSCSVMHEALHNHYTQKSLSLSPGK
chain 2: WPPPGTGDVVVQAPTQVPGFLGDSVTLPCYLQVPNMEVTHVSQLTWARHGESGSMAVFHQTQGPSYSESKRLEFVAARLGAELRNASLRMFGLRVEDEGNYTCLFVTFPQGSRSVDIWLRVLAKPQNTAEVQKVQLTGEPVPMARCVSTGGRPPAQITWHSDLGGMPNTSQVPGFLSGTVTVTSLWILVPSSQVDGKNVTCKVEHESFEKPQLLTVNLTVYYPPEVSISGYDNNWYLGQNEATLTCDARSNPEPTGYNWSTTMGPLPPFAVAQGAQLLIRPVDKPINTTLICNVTNALGARQAELTVQVKEGPPSEHSGISRNGGGGSGGGDKTHTCPPCPAPEKKGGPSVFLFPPKPKDTLMISRTPEVTCVVVDVSHEDPEVKFNWYVDGVEVHNAKTKPREEQYNSTYRVVSVLTVLHQDWLNGKEYKCKVSNKALPAPIEKTISKAKGQPREPQVYVLPPSREEMTKNQVSLLCLVKGFYPSDIAVEWESNGQPENRYMTWPPVLDSDGSFFLYSKLTVDKSRWQQGNVFSCSVMHEALHNHYTQKSLSLSPGK
B2: IL-12(E59A/F60A)/IL-2(R38D/K43E/E61R/Q126T)/CD155-Fc (Fc fusion)
chain 1: B1 chain 1
chain 2: WPPPGTGDVVVQAPTQVPGFLGDSVTLPCYLQVPNMEVTHVSQLTWARHGESGSMAVFHQTQGPSYSESKRLEFVAARLGAELRNASLRMFGLRVEDEGNYTCLFVTFPQGSRSVDIWLRVLAKPQNTAEVQKVQLTGEPVPMARCVSTGGRPPAQITWHSDLGGMPNTSQVPGFLSGTVTVTSLWILVPSSQVDGKNVTCKVEHESFEKPQLLTVNLTVYYPPEVSISGYDNNWYLGQNEATLTCDARSNPEPTGYNWSTTMGPLPPFAVAQGAQLLIRPVDKPINTTLICNVTNALGARQAELTVQVKEGPPSEHSGISRNGGGSGAPTSSSTKKTQLQLEHLLLDLQMILNGINNYKNPKLTDMLTFEFYMPKKATELKHLQCLERELKPLEEVLNLAQSKNFHLRPRDLISNINVIVLELKGSETTFMCEYADETATIVEFLNRWITFCTSIISTLTGGGGSGGGDKTHTCPPCPAPEKKGGPSVFLFPPKPKDTLMISRTPEVTCVVVDVSHEDPEVKFNWYVDGVEVHNAKTKPREEQYNSTYRVVSVLTVLHQDWLNGKEYKCKVSNKALPAPIEKTISKAKGQPREPQVYVLPPSREEMTKNQVSLLCLVKGFYPSDIAVEWESNGQPENRYMTWPPVLDSDGSFFLYSKLTVDKSRWQQGNVFSCSVMHEALHNHYTQKSLSLSPGK
B3: IL-12(E59A/F60A)/IL-2(L18R/Q22E/R38D/K43E/E61R)/CD155-Fc (Fc fusion)
chain 1: B1 chain 1
chain 2: B2 chain 2 with L346R, Q350E, T454Q
B4: IL-12(E59A/F60A)/IL-2(L18R/Q22E/R38D/K43E/E61R/Q126T)/CD155-Fc (Fc fusion)
chain 1: B1 chain 1
chain 2: B2 chain 2 with L346R, Q350E
B5: IL-2(R38D/K43E/E61R/Q126T)/CD155-Fc (Fc fusion)
chain 1: B1 chain 2 with K345D, K346E, L462Y, L477T, R501N, M503K, W505T, S511E, F516A, Y518V
chain 2: B2 chain 2
B6: IL-2(L18R/Q22E/R38D/K43E/E61R/Q126T)/CD155-Fc (Fc fusion)
chain 1: B1 chain 2 with K345D, K346E, L462Y, L477T, R501N, M503K, W505T, S511E, F516A, Y518V
chain 2: B2 chain 2 with L346R, Q350E
B7: IL-2(L18R/Q22E/R38D/K43E/E61R/Q126T/S130R)/CD155-Fc (Fc fusion)
chain 1: B1 chain 2 with K345D, K346E, L462Y, L477T, R501N, M503K, W505T, S511E, F516A, Y518V
chain 2: B2 chain 2 with L346R, Q350E, S458R
B8: IL-2(L18R/Q22E/R38D/K43E/E61R)/CD155-Fc (Fc fusion)
chain 1: B1 chain 2 with K345D, K346E, L462Y, L477T, R501N, M503K, W505T, S511E, F516A, Y518V
chain 2: B2 chain 2 with L346R, Q350E, T454Q
B9: CD155-Fc (control) (Fc fusion)
chain 1: B1 chain 2 with K345D, K346E, L462Y, L477T, R501N, M503K, W505T, S511E, F516A, Y518V
chain 2: B1 chain 2

These binders were tested against human IL-12 receptor complex (IL-12Rβ1 and IL-12Rβ2) (human, UniProt P42701 24-662; Q99665 24-862) (assay: cell-based or functional assay).
human IL-12 receptor complex (IL-12Rβ1 and IL-12Rβ2), sequence (Q99665 24-862, chain 2 of 2, other chains not shown): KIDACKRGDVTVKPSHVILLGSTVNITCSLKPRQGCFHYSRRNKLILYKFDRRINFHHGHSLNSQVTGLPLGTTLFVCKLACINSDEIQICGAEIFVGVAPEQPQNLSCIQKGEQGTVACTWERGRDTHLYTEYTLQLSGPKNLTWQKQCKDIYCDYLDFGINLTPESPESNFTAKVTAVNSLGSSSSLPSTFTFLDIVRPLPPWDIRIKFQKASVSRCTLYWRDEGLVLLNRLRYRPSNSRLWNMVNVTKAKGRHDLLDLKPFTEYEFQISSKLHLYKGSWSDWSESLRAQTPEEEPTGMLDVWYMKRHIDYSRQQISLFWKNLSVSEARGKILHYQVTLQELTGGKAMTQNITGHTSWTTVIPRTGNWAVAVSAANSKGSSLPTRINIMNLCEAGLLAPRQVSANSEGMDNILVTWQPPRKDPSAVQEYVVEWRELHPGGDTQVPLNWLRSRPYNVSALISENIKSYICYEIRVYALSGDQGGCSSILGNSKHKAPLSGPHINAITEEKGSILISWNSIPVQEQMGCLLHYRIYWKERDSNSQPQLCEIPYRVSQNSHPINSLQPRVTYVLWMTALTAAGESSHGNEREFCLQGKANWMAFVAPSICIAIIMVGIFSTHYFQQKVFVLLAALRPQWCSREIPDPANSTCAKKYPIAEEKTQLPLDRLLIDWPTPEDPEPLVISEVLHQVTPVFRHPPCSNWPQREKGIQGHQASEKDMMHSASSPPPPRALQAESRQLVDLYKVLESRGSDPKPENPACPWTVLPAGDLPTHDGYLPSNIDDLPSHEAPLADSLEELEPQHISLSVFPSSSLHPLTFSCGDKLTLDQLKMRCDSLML

IL-12 signal transduction, HEK-IL-12 [%] | Binder
< 0.2 | B1
< 0.2 | B2
< 0.2 | B3
< 0.2 | B4

The binders below were run against T1, human TIGIT on HEK-Blue reporter cells (assay: cell-based or functional assay).

IL-2 signal transduction, HEK-IL-2-TIGIT [%] | IL-12 signal transduction, HEK-IL-12-TIGIT [%] | Binder
< 0.1 | 21 | B1
35 | 17 | B2
78 | 21 | B3
29 |  | B5
15 |  | B6
< 0.1 |  | B7
56 |  | B8
20 | 19 | B4
< 0.1 |  | B9

The binders below were run against T2, human IL-2 receptor (IL-2Rα, IL-2Rβ, …) (assay: cell-based or functional assay).

IL-2 signal transduction, HEK-IL-2 [%] | Binder
< 0.1 | B1
4 | B2
12 | B3
3 | B5
2 | B6
< 0.1 | B7
9 | B8
2 | B4
< 0.1 | B9

Reference: patent US20240392004A1 (IMMUNOWAKE, published 2024)
